The series can be described thus: soluble on expression in E. coli; label from the status in PepcDB or PDB records.
Turning to “MGSDKIHHHHHHMMATSAVEKIDYWQASILKEMELSRAQFTHFAFEKHVHLDYHIGVVCHGGQRYHHRGSEYRLTPGNISTLNPDESHNGQSIADGGYEALVMSLPTSYVQQVGGALNQGELYFSTPILDDPKLRAYFIRLHRQLTLHQANITPLEAETLLLGFISELFYRHGKLRNLPSCQARLSGAQLDNIKQQFHQGLDQEFELEQLALSVDLSKFQFLRQFKAATGMTPHAYLKRLRLEYAKKALMRGDSAISTAYDLGFFDQSHFNKAFKRAFLITPAHFQKRVTP”, the “soluble on expression in E. coli” value is on record as “not soluble”.

On to “MEDLLPTLPSLDHRDALPNALASPVLPAGQSDAQLVRTWLDTKYAAGLGIRASTRAQYALEAHRLLWYAHALGRPLASWQVADANGYLAFLADPPAHAVGDGRVRQDSPAWRPLRGPLSEASRRQTATIVGGLFEWLVGVEALRVNPFQAVPRARSARGPGSQRRFLEAEQLAAVFDAVEARPAPTLWAQLHKARDRLLLALLFHTGLRASEVTALTWPDFERQRGRHGDFWTVRIREAKGGSDQLVPCDNVMAELARFRQLVGLSPEPRATDTMAVVPAMAGGRQRLAPLTDTLALQRRLSRPVRTRQGLYTIVRQVFEAAAVRLEASGYAEGAANLRAASTHWLRHSHATHLLRAGVPVTDVQRTLRHRDINTTRRYTHEALEDVARSIGGKLPAVLEHHHHHH”, for which the “soluble on expression in E. coli” value was “not soluble”.

As to “MKRSTTDSDLAGDAHNETNKKMKSTEEEEIGFSNLDENLVYEVLKHVDAKTLAMSSCVSKIWHKTAQDERLWELICTRHWTNIGCGQNQLRSVVLALGGFRRLHSLYLWPLSKPNPRARFGKDELKLTLSLLSIRYYEKMSFTKRPLPESK”, the “soluble on expression in E. coli” value is listed as “soluble”.

With “MPAFVDLEELLATRLLVQGNSGSGKSHLLRRLLEQSSSWVQHCVIDPEGDFVTLADKFGHVIVEAQRSEQELMRIAYRIRQHRVSVVLNLEGLDTEQQMRAVGTFLGALFDVERDYWYPMLVVVDEAQLFAPAVAGEVSDEARKISLSAMTNLMCRGRKRGLAGVIATQRLAKLAKNVAAEASNFLIGRTFLDIDMVRAADLLGMERRQAEMFRDLERGHFVALGPALSRRSLRIIIGSVETLARSSSPKLMPLPKERVDVKELVFTASQEEILIPFKQSREPVKEKSIHAILEKAVNKKRELLAENSSLFPELSVVDRDLQAECIIREILEDPEAFYRSTAVLYQDFLVRCRIHGLSGDFLNLSQFRRKLAIAQACVDKETAVSENWKRILYISESLEDDVQGVFLNVAQAALGGKPCPSDAFLARLYGTHSLSRARRLLTYFEERGLIVIHTHFSGQRIIAFPDLGVETAPGDPKEPI”, the “soluble on expression in E. coli” value is recorded as “not soluble”.

Turning to “MSLEQCYTDVTEFAIPASTQKLYLSPVLDGFNSEIIAYNLSTSPNLEQVQTMLEQAFTEKHYENTILHSDQGWQYQHDSYHQFLEGKGIQASMSRKGNSQDNGMMESFFGILKSEMFYGYEKTFKSLNQLEQAIVDYIDYYNNKRIKVKLKGLSPVQYRTKSFGEGHHHHHH”, the “soluble on expression in E. coli” value was “soluble”.

For the sequence “MDSETLPESEKYNPGPQDFLLKMPGVNAKNCRSLMHHVKNIAELAALSQDELTSILGNAANAKQLYDFIHTSFAEVVSKGKGKK”, the “soluble on expression in E. coli” value is recorded as “soluble”.

Regarding “MPEVRAERYIPAPPERVYRLAKDLEGLKPYLKEVESLEVVAREGARTRSRWVAVAMGKKVRWLEEEEWDDENLRNRFFSPEGDFDRYEGTWVFLPEGEGTRVVLTLTYELTIPIFGGLLRKLVQKLMQENVESLLKGLEERVLAASS”, the “soluble on expression in E. coli” value was “soluble”.

Consider “MSLVRDIKTFKFFEVLLIYEMLEVLKALAMMNATRKVVKISSKELAEHIGQSLQTAARKLKELEDEGLIDRTLTKDGQFVVITEKGKQLLYKEYMDYKKIFDDEGTIKIKGEVFSGVGEGRYYVSLEGYRKQFREKLGFDPYPGTLNLRIPKEEMYFRRRLDEERGILIEGFSTEDRTFGEVKAFKCRINGIEGAIVIPKRTHYPAEILEVISPVKLRDKLGLKDGDFVEVEVILEGHHHHHH”, for which the “soluble on expression in E. coli” value is reported as “soluble”.

As for “MGSDKIHHHHHHMRIFFLDQSGKPGGAELCLIDIAKPYSHSALVGLFADGPFKDLLEQNHIPVEILATQTIQVSKESSLAQGLKSLGQLAPLITKVIKKAREYDLIYANTQKALVVGALASFFSRRPLVYHLHDILSTEHFSQTNLRIAINLANRCASLVIANSQASKTAFIQAGGRSDIVEVVYNGFDLKIYQTDEPGINQLQQKLGLQGKFVVGHFSRLAPWKGQHILIDALAKCPPEVTVILVGDALFGEQDYAQKLHKQVTDLGLENRVKFLGFRSDIPQLMAACDLVAHTSTSPEPFGRVIVEAMLCGKPVVAAKAGGVMELVEHGLNGFLVTPGEPQELAQVIITCLQETEITATIANNARTTASRRFDVATINQQIAQLLSHRF”, the “soluble on expression in E. coli” value was “not soluble”.

For the sequence “MTLTDISLAQAFISIPQDVIALDLSNNLLGSKSCVDLLVNIADCIPAGVTSLDLSSNGLRLTQVSLVTPKHVTSLNLCFNPLHEISIDGLEWLKDSLAHIQIIYLSYDMVNNMSREQRQAFRAVIPNIQTIILVDKNGKEIGPSHTAKIANLISELGGGNPEVPSLEHHHHHH”, the “soluble on expression in E. coli” value is reported as “not soluble”.

With “MHHHHHHSSGVDLGTENLYFQSNAMKIDYLTLFPEMFDGVLNHSIMKRAQENNKLQINTVNFRDYAINKHNQVDDYPYGGGQGMVLKPEPVFNAMEDLDVTEQARVILMCPQGEPFSHQKAVELSKADHIVFICGHYEGYDERIRTHLVTDEISMGDYVLTGGELPAMTMTDAIVRLIPGVLGNEQSHQDDSFSDGLLEFPQYTRPREFKGLTVPDVLLSGNHANIDAWRHEQKLIRTYNKRPDLIEKYPLTNADKQILERYKIGLKKG”, the “soluble on expression in E. coli” value is “soluble”.

With “MGSDKIHHHHHHMGIRSHLAIAAGKTSQWVLQTFFKGGSSYPGKLALKIDPKILDTLAKDYEIVVVTGTNGKTLTTALTVNILRQEFDEVLTNPTGANMEQGIVSTFLNAKAKKGQKKFAVLEIDEASLSRVTKYIQPKLFVFTNIFRDQMDRYGEIYTTYRLIMEGAAAAPEATILCNGDSPIFNSKETVNPRKYYGFNHLPPKEQLAHYNTDGVLCPKCNHILHYKMITYANLGDYYCPNCGFKRPELDVQLTEMVRMDNTSADFVIDGEEYGIAVGGMYNVYNALAATAVAEYYQVAPDKIRAGLAYDEKVFGRQETIKVGDKECTLVLVKNPVGLNQVIDMMGLAPYSFSLVSLLNANYADGIDVSWIWDGNHEAFADMDIPKVIAGGDRHEDMALRLKVAGIPEEKLLEIADLEQVISEIKTLPTDHVYILATYTAVLQLRKSLTAQGYIQGGMNGV”, the “soluble on expression in E. coli” value is on record as “not soluble”.

For the sequence “MPFDFETVLNRRHTNAVKWDVADDELPMWVADMDFETAPVIKQALIKRAQFGVFGYEEVPMAYYEAVADWWATEHNFRPQIEWLMFCTGVVPAISSIVRKMTAAGDNVLVQAPVYNIFYHSIENNGRHTLSSDLVARDASYAIDWDDLTKKLADPLTTMMILCNPQNPIGVVWSRATLQRLGELCLKYHVLVVADEIHCDLTLNGNAYTPFSSLTAPVAHNSISCISPSKTFNVAALHAATLIIPDAHVRALVSRGINNDELAEPNSFAIPASIAAYTEGHDWVAALRTKLAANQRQVQTYLTAELPQVKLVEAQATYLLWLDVSQVTTDSAALAAFIRQRTGLFLSAGDVYRGDGNRFLRLNVACPTTTLTDGLARLKAGITAYQQVQA”, the “soluble on expression in E. coli” value is given as “not soluble”.

As for “MDNEKLIREARRMEDVQQLKMQIPKPVDKKPRPPPSENNLKLISCEETCMDETLKNSSKPRMIYNKQLGRAESIDFDVPSLSYESSTFKKSNNSSGGALVLDNHYLINNDDGTVKKLPMKVYVKQRLEDGSLDVQLVFFDENSQKVMDISMLVNGKKIRNVQFCGKDGKLVN”, the “soluble on expression in E. coli” value is “not soluble”.

In the case of “MAHHHHHHMASSEEEKRVAYCKQHNVHHLFELLATKLLLDRPENPFEYLREMLSKVEESEKSKQSYDPTVLSPPVNGAVEPLKKITLGTFGLDNAGKTTLISALGGQIEVNTTPTVGFTPTKFQTEKYDICIFDLGGAANFRGIWVHYFHDCHGLMFVIDSAADDAVVRESLNVLRDLSQHRYIKGKPILVLANKKDLENARGTKVIPNGFLDKLFGRNTAYRVVASCGIEEDPALEEGVEWLLSVVDKLHDTLEARVNCDTEEVKMEAKRKAAERLAALKTAS”, the “soluble on expression in E. coli” value is reported as “not soluble”.

With “MLPFLPEPSLSYTQQNRTAVLLLNLGTPDAPTAQAVRPYLKSFLTDRRIVELPKWLWYPILHGLVLTFRPKKSAHAYEKIWFKEGSPLEVYTARQAAALAERMPDLIVRHAMTYGNPSIADVLAELKSQGVGRLLAIPLYPQYAASSSGAAVDKVCEQLLLQRNQMSVRTISRFYDDAGYIDAMKNHILRYWAEHGRGKKLMLSFHGVPQKHYDLGDPYPDECRHTAKLLAEALELTEDEYTVSFQSQFGRAKWVTPSTQDLFGKLPKQGVTELDVFCPGFLADCLETMEEIALMGREQFYEAGGKNYRYIPCLNDNPDWIDALVALAEENLGGWR”, the “soluble on expression in E. coli” value is on record as “not soluble”.

For the sequence “MGSDKIHHHHHHVRALVVSVDNTARREGDTGRRVGMQPPEPPFPHNEKESTAVNFKEMQATLMHELRLYHYPVAVKFFFDQAEVDKFKAETEYYTPLKAMTFCQWQIAARMKGQTVYSEREGLGCSNAVFSFGWKDLDEAEVKSHAKYCKDLDQAKRFVETKSRLPEGLIGIAVAPLADATFMPDTVHFYCDNMQAYHLAVDYMAATDTHPLRPQITMNSSACGGNVYTMVEKQFNMLPACSGSYNAGKTERGEINVIIPGEQMQMVYERLLERMEKLGSSSITKPGDGFPGADVCKNCPLIVFKKAKD”, the “soluble on expression in E. coli” value is “not soluble”.

For “MSLGYKCVYMLSEIKEYLKNTVLFAFDFETSPRDKWRNDKSAALDAHKADITGISFSVSEGTAIYVPLKHRSGRNAENQAAIWDYLKLLFESKDVIKVAHNLAFESMFLYARGIVLQKPCYDTIAASQLTLKSKWEFRSLADSGLKTLAPALCKAEMTEFSTVTEGRFFDELNPQDEKTVRYACADSDYTLRLYHVFNQWFDRFLPKHRTIVEEVESPTSVYVGIMKYNGILVDKSAMLKKQAEAAEKIVSIRKEIAGIIGNVEIGANASTSAFKKYLFVDLGLPVMKTTAKHQEAADDETMILLKEWCATNRPELVRLFELVQEYRKWGKLKSTYIDGYLRFIDEDTGRIHPDLMPLGTETGRFASRNPNMQNCPQKDNDPIGVRKFIIAPAGKVLLSLDFSQIELRVGAFYCRDKRMLETYRTGGDIHAQTTSVIYRIPFEEAADKNAPHYKERRTIAKNCNFGVFYGLFPTGLQRTLKFKAGINPTLAECETIIQNLKSGYPGLAKWQDEVKKRAAVSCYSETWLGRRRYLLGIRSSDWGKKSFAERCALNTPIQGTAADILKLACGRIISGLPERLWLKPMLQIHDELVFELPEDKVDEAVVFIKECMETQPFPAFDVPIVAEASVGRNFGEMKEMEEGHHHHHH”, the “soluble on expression in E. coli” value is listed as “soluble”.

For the sequence “GPGSMQLDDWDTYRETLLYARELAVLLPSSWSELSSEQSATKSSSSLSHSSSLPSLAFVKRVEAPLLTQWMTAAAAAPVTCHCSSVGDSVEDMDYATAVVAARWTRMLGMWIVLRVELLCNTSGGVLTLAEEYEVGRYRQYFVPLAWPMLDRSIRERLAARLCALADKRRVSQPMGGTSCANDMAASSFCGTLLGKDEEDEQACDEVCTRAMEATQRVAREQLRISWDALHPSSIPATVGAKLKRLSAQQSRRHESETGSLPRPVVVHTNCLGGLLHALTSFRLRPQRQHADHGSAPLLTLTQNALLHIGYDLLTKVRSSVIERCYYLIPALLDYESCLLFCEAMLKESAALQAHEKELTRTQSILRLTLQSLLQSALGMYRHVIEALLVDYKKSACKSSASSTPRLVKVSAHLLPANPLVAQEAAQKQHASDAVVPSKPPTHPGAADGCSASAVMRLSEPAFSILVEVLEPTCDLLQRYPADWNVLWTRSLTGPDGRDQGATSGSHIAREGGLLSPSSRRQRLVSQQRQRSIAMDVRREVVSFLDAEVSNCFAAAAAGSGAASKKAQQQAAADAYLTATYLSAYGPHWL”, the “soluble on expression in E. coli” value is given as “not soluble”.

Values taken from the DeepSol protein solubility set.
